Source: patent CN114984207A (ZHEJIANG TERUISI PHARMACEUTICAL INC, dated 2022)

Legend:
[1] = target: T1, 人PD-1蛋白(Acro PD1-HB2F2) (human, UniProt Q15116 25-167, limits assumed); assay: ELISA, human PD-1 protein coated at 20 ng/mL, antibody titrated from 1000 ng/mL
T1 construct: Bought protein coated on the ELISA plate; also called 抗原PD-1蛋白; human PD-1 protein

[2] = target: T2, PD-1蛋白 (冻干, fortebio assay) (UniProt Q15116 25-167, limits assumed); assay: BLI (Octet K2), antibody captured on Protein A sensor, PD-1 protein as analyte from 50 nM, 2-fold dilutions
T2 construct: also called 抗原PD-1蛋白; 冻干PD-1蛋白
T2 sequence (Q15116 25-167 limits assumed): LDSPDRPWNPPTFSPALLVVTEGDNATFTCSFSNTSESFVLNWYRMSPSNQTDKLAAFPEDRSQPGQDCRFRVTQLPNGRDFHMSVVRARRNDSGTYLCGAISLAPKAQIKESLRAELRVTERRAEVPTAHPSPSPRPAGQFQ

T1 sequence (Q15116 25-167 limits assumed): as above

EC50 [1]: 9.98 ng/mL | kon [2]: 274000 M⁻¹ s⁻¹
B1: 抗PD-1纳米抗体 N7 (Fc fusion)
chain: QVQLQESGGGLVQPGGSLRLSCAASGSTYLRFSMGWFRQVPGKEREGVAAIGGDGRTSYADSVKGRFTISKDNSKNTLYLDMNSLRAEDTAVYYCAAAVLLDGSFSLLAPLVPYKYDYWGQGTLVTVSSERKSSVECPPCPAPEFLGGPSVFLFPPKPKDTLMISRTPEVTCVVVDVSQEDPEVQFNWYVDGVEVHNAKTKPREEQFNSTYRVVSVLTVLHQDWLNGKEYKCKVSNKGLPSSIEKTISKAKGQPREPQVYTLPPSQEEMTKNQVSLTCLVKGFYPSDIAVEWESNGQPENNYKTTPPVLDSDGSFFLYSRLTVDKSRWQEGNVFSCSVMHEALHNHYTQKSLSLSLGK
